# Assay results from the nanobody polyreactivity screen of Harvey et al. (2022).
# Test: yeast display, Sf9 membrane polyspecificity reagent, FACS + sequencing; frameworks hold sequencing errors
# Procedure, shortened: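 Synthetic nanobody libraries on Saccharomyces cerevisiae BJ5465 were galactose-induced for 36–48 hours, stained 1 hour at 4 °C with 10% biotinylated, detergent-solubilized Sf9 membrane reagent and enriched on streptavidin microbeads. FACS then separated cells into low and high (top ~1%) gates by anti-HA (expression) and streptavidin (reagent binding) fluorescence. Genes were colony-PCR amplified, MiSeq 2 × 250 sequenced and CDR-length filtered. A clone's polyreactivity label is that of its gate of origin.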
sequence,measurement,value
QVQLVESGGVLVQAGGSLRLSCAASGSTFLDYAMGWYRQAPGKERELVAAITSGGSTYYADSVKGRFTISRDNAKNTVDLHMKSMIPEDTAVYYCAADSVTGNAPSLVGDIYYYWGQGTQVTVSS,polyreactivity (PSR sort gate),low polyreactivity
QVQLVESGGVLVQAGGSLRLSCAASGSTFLGYAMGWYRQAPGKERELVAAISSGGSTNYADSVKGRFTLSRDNAKNTVYLQMNSLKPDDTAVYYCGARTRRFRYYYWGQGPQVTVSS,polyreactivity (PSR sort gate),high polyreactivity
QVQLVESGGVLVQAGGSLRLSCAASGSTFRRYAMGWYRQAPGKERELVAAITTRGGSTYYADSVKGRFTISRDNAKNTVYLQMNSLKPEDTAVYYCARDYSTYLRTAGDYWGQGTQVTVSS,polyreactivity (PSR sort gate),low polyreactivity
QVQLVESGGVLVQAGGSLRLSCAASGSTFSVNVMGWSRQAPGKERELVAAINSGGSTDYADSVKGRLTISRDNAKNTVYLQMNSLKPEYTAVYYCNAYDIVIYDYWGQGTQVTVSS,polyreactivity (PSR sort gate),low polyreactivity
QVQLVESGGVLVQAGGSLRLSCAASGSTFSWYAMGWYRQAPGKERELFAGITRSDGSTYYADSVKGRFTNSRDNAKNNVYLQMNSLKPEDTAVYYCAADDYIIRYGTNVDYWGQGTQVTVSS,polyreactivity (PSR sort gate),low polyreactivity
QVQLVESGGVLVQAGGSLRLSCAASGSTFTYNAMGWYRQAPGKEREFVAANSVGGGITYYADSVKGRFTISRDYAKNTVYLQMKSLKPEDTAVYYCAADGEYPHSEDFEYWGQGTQVTVSS,polyreactivity (PSR sort gate),low polyreactivity
QVQLVESGGVLVQAGGSLRLSCAASGSTFVRNAMGWYRQAPGKEWELVAAITGTGDSTYYADSVKGRFTISRDNAKNTVYLQMNSLKPEDTAVYYCAANSDAYRYWYDYWGQGTQVTVSS,polyreactivity (PSR sort gate),low polyreactivity
QVQLVESGGVLVQAGGSLRLSCAASGSTFYRYAMGWYRQAPGKERELVAANTRGSRTYYADSVKGRFTISRDNAKNTVYLQMNSLKPEDTAVYYCAAYRDYGSYGSWGQGTQVTVSS,polyreactivity (PSR sort gate),high polyreactivity
QVQLVESGGVLVQAGGSLRLSCAASGYIFQTYAMGWYRPAPGKEREFVAAISFIGSSTRYADSVKGRFTISRDNAKNTVYLQMNSLKPEDTAVYYCNNDTITSTWTPYTSWFGYWGQGTQVTVSS,polyreactivity (PSR sort gate),high polyreactivity
QVQLVESGGVLVQAGGSLRLSCAATGRIKDNVMGWYRQAPGKERELVAAITRSARRTYYADSVTGRFTISRDNAKNTVYLQMNSLKPEDTAVYYCAAQAERYGFEYWGQGTQVTVSS,polyreactivity (PSR sort gate),low polyreactivity
QVQLVESGGVLVQAGGSLRLSCAATVFIFKGNAMGWYRQAPGKEREFVADISARGGSTYYADSVKGRFTISRDNAKNTVYLQMNTLKPEDTAVYYCAATTGLYTRYGYWGQGTQVTVSS,polyreactivity (PSR sort gate),high polyreactivity
QVQLVESGGVLVQAGGSLRLSCPASGRIYDGYAMGWYRQAPGKERELVAAINSNDGTTYYADSVKGRFTISRDNAKNTVYLQMNSLKPEDTAVYYCAKVSYNAWSYGPQMDYWGQGTQVTVSS,polyreactivity (PSR sort gate),low polyreactivity
QVQLVESGGVLVQAGGSLRLSSAAYGFIFAKYAMVWYIQAHGKERELVAGISESCGSTYYADSVKGRFTISRDNAKNTVYLQLNSLKPEDTAVYYCNADDTVYFIKAGDYWGQGTQGTVSS,polyreactivity (PSR sort gate),high polyreactivity
QVQLVESGGVLVQAGVSLRLSCAASGRNFLWYVMGCYRQAPGKERELVAAISSGGRTYYADSVKGRFTSSRDNAKHTLYLQMNSLKPEDTAVYYCAAVRRYLKAAYGYWGQGTQVTVSS,polyreactivity (PSR sort gate),low polyreactivity
QVQLVESGGVLVQAVGSLRLSCAASGRIFYPYVMGWYRPAPGKERELVASITSGGGTYYADSVKGRFTISRDNAKNTVYLQMNSLKPEDTAGYYCNALAIWSEDWDHWISYADDYSGQGTQVTVSS,polyreactivity (PSR sort gate),low polyreactivity
QVQLVESGPGLVQAGGSLRLSCAASGRIFTANAMGWYRQAPGKERELVAAITTSDGTYYADSVKGRFTISRDNAKNTVYLQMYSLKPEVTAVYYCATDTATYPPAMDDWGQGTQVTVSS,polyreactivity (PSR sort gate),low polyreactivity
QVQLVESGRALVQAGGSLRLSCAASGFTFWTNTMGWYIQAPGKERELVAAITSTGGTTYYADSVKGRFTISRDNAKNTVYLQMNSLKAEDTAVYYCAAELGGYVASYYYPGYDYWGQGTQVTVSS,polyreactivity (PSR sort gate),low polyreactivity
QVQLVESGRGFVQAGGRLRLSCAASGRTFGRYTMGWYRQAPGKDRELVASISNTARTNYADSVKGRFTISRDNAKNTVYLQMNSLKPEDTAVYYCAATYIVRYGYWGQGTQVTVSS,polyreactivity (PSR sort gate),low polyreactivity
QVQLVESGRGIVQAGGSLRLSCAASGIIFGGNAMVWYRQAPGKERELVARIRWGGGSTYYADSVKGRFTISRDNAKNTVYLQMNSLKPEDTAVYYCARTTSYLTSTRRYYYWGQGTQVTVSS,polyreactivity (PSR sort gate),high polyreactivity
QVQLVESGRGIVQAGGSLRLSCAASGLSFSNYAMGWYRQAPGKERELVARITTSGGRTYYADSVKGRFTISRDNANNTEYLKMNSLKPEDTAVYYCAANNRRRPSYDYDSWGQGTQVTVSS,polyreactivity (PSR sort gate),low polyreactivity
QVQLVESGRGLDQAGGSHRISCAGSARIFTIYAMGCYRQAPGKERELVAAISKSGGRTYYADSVKGRFTISRDNAKNTVYVQMNSLKPEDTAVYYCAARWRSWRYKYDYWGQGTQVTVSS,polyreactivity (PSR sort gate),high polyreactivity
QVQLVESGRGLFQAGGSLRISCAPSGSNFGYYTMGWYRQAPGKDRELVAAITWSGGSTYYADSVKGRFTISRDNAKNTDYLQMYSLKPEDTAVYYCAADGFYYRNWGRIRYYYWGQGTQVTVSS,polyreactivity (PSR sort gate),low polyreactivity
QVQLVESGRGLVHAGGSLRISCAASGSTYTWNVMGWYRQAPGKERELVADINSGADTSYADSVKGRFTISRDNAKNTVYLQMNSLKPEDTGVYYCAADIYVYDYWGQGTQVTVSS,polyreactivity (PSR sort gate),low polyreactivity
QVQLVESGRGLVHAGGSLRLSCAASGFILGVNERGWYRQAPGKERELVAAISQGDGSKYYADSVKGRFTISRDNANNTVYLQMNSLKPEDTAVYYCNAELYRDLRGYDHWGQGTQVTVSS,polyreactivity (PSR sort gate),low polyreactivity
QVQLVESGRGLVLAGGSLRLSCAASGFIFSYNAMGSYRLAPGKERELVAAISSSGGTTYYADSVKGRFTISRDNAKNTVYLQMNSLKPEDTAVYYCAADGRTYHHHDCGWYRYDYWGQGSQVTVSS,polyreactivity (PSR sort gate),low polyreactivity
QVQLVESGRGLVQAGCSLRLSCAASGRTFSLYAMGWYRQAPGKERELVAAITLSAGSTYYADSVKGRFTISRDNEKNTVYLQMNSLKPEDTAVYYCNTRTLVAMGYWGQGTQVTVSS,polyreactivity (PSR sort gate),high polyreactivity
QVQLVESGRGLVQAGGILRLFCAASGSTFVSYAIAWYRQAPGKERELVAAISRSGGSTYYADSVKGRFTISRDNAKNTVYLQMNSLKTEDTAVYYCAAVRYWSDYDYWGQGTKVTVSS,polyreactivity (PSR sort gate),high polyreactivity
QVQLVESGRGLVQAGGRQRLSSAASGTTFGRYAMGWTRQAPGKQRELVAAISESDGSTYYADSVKGRFTISRDNAKNTVYLQMNSLTPEDTSVYYCAAEWTHYWWYQYDYWGQGTQVTVSS,polyreactivity (PSR sort gate),high polyreactivity
QVQLVESGRGLVQAGGSLRISCAASGLILYTYAMGWYRQAPGKERELVAAITKSGGRTYYADSVKGRFTISRDNAKNTVYLQMNSLKPEDTAVYDCAARPYSRPYSFGFYYWGQGTQVTVSS,polyreactivity (PSR sort gate),high polyreactivity
QVQLVESGRGLVQAGGSLRISCAASGRIFFYYTMGWYRQAPGRERELVAAINSTGATNYADSVKGRFTISRDNAKNTVYLQMNSLKPEDTAVYYCNAGTRYIFLYPPFLGAAFDYWGQGTQVTVSS,polyreactivity (PSR sort gate),low polyreactivity
QVQLVESGRGLVQAGGSLRLICAASGLTFHRYAMGWYRQAPGKERELVAALTWRGVSTYYADSVKGRFTISRDNAKNTVYLQMNSLKPEDTAVYYCAADDYFYDPYEYWGQGTIVTVSS,polyreactivity (PSR sort gate),high polyreactivity
QVQLVESGRGLVQAGGSLRLRGAASGSTSWSNAMGWYRQAPGKERELVAAITTGASTYYADSVKGRFTSSRDNAKNTVYLQMNSLKPEDTAVYYCAADPWVLWSYYYWGQGTQVTVSS,polyreactivity (PSR sort gate),low polyreactivity
QVQLVESGRGLVQAGGSLRLSCAASASTFYYNAMGWYRQAPGKEREFVAGITSSGAGTYYADSVKGRFTISRDNAKKTVYLQMNSLKPEDTAVYYCAAVYRWEGRTYRYVYWGQGTQVTVSS,polyreactivity (PSR sort gate),high polyreactivity
QVQLVESGRGLVQAGGSLRLSCAASGFIFRTYVMGWSRQATGKERELVAAITSSGGSTYYADSVKGRFTISRDTAKNTVYLQMNSLIPEDTAVYYCNAYPVYGRYTHYGYGHWGQGTQVTVSS,polyreactivity (PSR sort gate),high polyreactivity
QVQLVESGRGLVQAGGSLRLSCAASGFTFGYYAMGWYRQAPGKERELVASISRSGGSTNYADSVKGRFTISRDNAKNTVYLQMNSLKPEDTAVYYCNKRSYWYQGRFDYWGQGTQVTVSS,polyreactivity (PSR sort gate),high polyreactivity
QVQLVESGRGLVQAGGSLRLSCAASGFTFRRYAMVWYRQAPGKERELVAAITRNGGSTYYADSVKGRFTISRDNAKNTVYFQMNRLKPEDTEVYYCNAVLYTPVYDGFDSWGQGTQVTVSS,polyreactivity (PSR sort gate),high polyreactivity
QVQLVESGRGLVQAGGSLRLSCAASGFTFYIYAMGWYRQAPGKERELVAAINFGGGGTYYADSVKGRFTISRDNAKNTVYLQMNSLKPEDTAVYYCAADYWYDYYSTEYDYWGQGTQVTVSS,polyreactivity (PSR sort gate),low polyreactivity
QVQLVESGRGLVQAGGSLRLSCAASGFTIDYYAIAWYRQAPGKERELVADISSDGSTYADSVKGRFTISRDNAKNTVYLQMNSLKPEDTAVYYCNAYLSKYFRYDYWGQGTQVTVSS,polyreactivity (PSR sort gate),high polyreactivity
QVQLVESGRGLVQAGGSLRLSCAASGIIFGSYAMGWYRQAPGKEMELVAAISRGTSTYYADSVKGRFTISRDNAKITVYLQMNSLNPEDTAVYYCAATRQEYGPHSRFVYVNYYYWGQGTQVTVSS,polyreactivity (PSR sort gate),low polyreactivity
QVQLVESGRGLVQAGGSLRLSCAASGITFRYYAMGWYRPAPGKERELVAAITRGGRTNYADSVKGRFTISRDNAKNTVYLQMNSLKPEDTAVYYCATGRDSNFGNSYYYWGQGTQVTVSS,polyreactivity (PSR sort gate),high polyreactivity
QVQLVESGRGLVQAGGSLRLSCAASGITFTGYAMGWYRQAPGKERELVAASTSGGSTTYADSVKGRFTISRDNAKNTVYLQMNSQKPEDTAVYYCGARTADYSTAEYDYWGQGTQLTVSS,polyreactivity (PSR sort gate),low polyreactivity
QVQLVESGRGLVQAGGSLRLSCAASGRIFKTYAMGWYRQAPGKERELVAAITTSGDSTYYADSVKGRFTISRDNAKNTVYLQMNSLKPEDTAVYYCAARPRVRSSYRYYYWGQGTQLTVSS,polyreactivity (PSR sort gate),high polyreactivity
QVQLVESGRGLVQAGGSLRLSCAASGRIFRYYTMGCYRQAPGKERELVASITYRGTSTYYADSVKGRFTISRDNAKNTVYLQMTSLKPEDTAVYYCNKDLFFRSISSKYDYWGQGTQVTVSS,polyreactivity (PSR sort gate),high polyreactivity
